Laboratory results published in paper PMC5942852.

How the values were obtained:
[1] = biological target: CH103 WT with the H2-6 residue at position 67 (E->Y) (human); assay: SPR; ProteOn XPR36 (Bio-Rad), GLC chip; IgG captured on amine-coupled anti-human capture antibody (Human Antibody Capture Kit), antigen as analyte; 1x HBS-EP+ pH 7.4 with BSA 1 mg/ml; equilibrium or kinetic Langmuir model
[2] = biological target: H2-6 position 67 mutant (Y->E) (human); assay: as above
[3] = biological target: H2-6 position 59 mutant (Y->F) (human); assay: as above
Chain of H2-6 position 59 mutant (Y->F) (human) (heavy, as listed by the source, chain 1 of 2): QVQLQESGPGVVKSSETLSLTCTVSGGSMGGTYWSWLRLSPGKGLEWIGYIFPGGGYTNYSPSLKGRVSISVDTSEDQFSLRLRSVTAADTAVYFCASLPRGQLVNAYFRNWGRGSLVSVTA
Chain of H2-6 position 59 mutant (Y->F) (human) (light, as listed by the source, chain 2 of 2): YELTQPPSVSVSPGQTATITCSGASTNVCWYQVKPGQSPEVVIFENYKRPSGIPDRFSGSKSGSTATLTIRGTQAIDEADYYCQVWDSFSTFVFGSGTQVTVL

CH103 (human) [4] = assay: as above
Chain of CH103 (human) (heavy, as listed by the source, chain 1 of 2): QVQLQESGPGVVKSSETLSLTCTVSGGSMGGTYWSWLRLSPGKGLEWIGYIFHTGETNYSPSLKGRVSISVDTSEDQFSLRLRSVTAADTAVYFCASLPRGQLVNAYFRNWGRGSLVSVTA
Chain of CH103 (human) (light, as listed by the source, chain 2 of 2): as the sequence (light, as listed by the source, chain 2 of 2) above

CH103 (human) [5] = assay: SPR; Biacore 4000, CM5 chip; IgG captured on amine-coupled anti-human capture antibody (Human Antibody Capture Kit), antigen as analyte; 1x HBS-EP+ pH 7.4 with BSA 1 mg/ml; equilibrium or kinetic Langmuir model; apparent KD

Chain of H2-6 position 67 mutant (Y->E) (human) (heavy, as listed by the source, chain 1 of 2): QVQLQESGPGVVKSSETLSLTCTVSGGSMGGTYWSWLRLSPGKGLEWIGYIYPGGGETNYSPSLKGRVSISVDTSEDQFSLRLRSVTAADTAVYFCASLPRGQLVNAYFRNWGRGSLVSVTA
Chain of H2-6 position 67 mutant (Y->E) (human) (light, as listed by the source, chain 2 of 2): as the sequence (light, as listed by the source, chain 2 of 2) above
Chain of CH103 WT with the H2-6 residue at position 67 (E->Y) (human) (heavy, as listed by the source, chain 1 of 2): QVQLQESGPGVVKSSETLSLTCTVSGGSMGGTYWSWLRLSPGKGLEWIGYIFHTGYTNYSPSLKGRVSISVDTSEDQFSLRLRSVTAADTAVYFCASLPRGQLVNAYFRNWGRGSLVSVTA
Chain of CH103 WT with the H2-6 residue at position 67 (E->Y) (human) (light, as listed by the source, chain 2 of 2): as the sequence (light, as listed by the source, chain 2 of 2) above

Row | Substance | Kd [1] | Kd [2] | Kd [3] | Kd (CH103 (human) [4]) | Kd (CH103 (human) [5])
1 | gp120 Core Bal (domain or fragment) | 11.7 nM | 212 nM | 12.8 nM | 1100 nM | 91 nM
2 | gp120 Core HXB2 (domain or fragment) | 2.3 nM | 30.9 nM | 2.2 nM | 138 nM | 52 nM
